T1: monkey CD137 protein (Biacore) (cynomolgus monkey, UniProt Q07011 24-179 (human entry), limits assumed)
T1 construct: Construct used as SPR analyte not described; also called Cyno CD137
T1 chain: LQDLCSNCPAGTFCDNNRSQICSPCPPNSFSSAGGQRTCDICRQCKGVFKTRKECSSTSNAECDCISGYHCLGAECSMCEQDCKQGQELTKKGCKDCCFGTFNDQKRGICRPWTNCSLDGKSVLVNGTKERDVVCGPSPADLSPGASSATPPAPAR

T2: Hu_CRD4 (human, UniProt Q07011 119-159, limits assumed)
T2 construct: also called human CD137 CRD4
T2 chain: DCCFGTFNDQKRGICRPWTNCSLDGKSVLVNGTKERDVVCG

T3: monkey CD137 fused with human FC fragment (cynomolgus monkey, UniProt Q07011 24-179 (human entry), limits assumed)
T3 construct: also called Cyno CD137-Fc; not shown: human Fc fragment
T3 chain: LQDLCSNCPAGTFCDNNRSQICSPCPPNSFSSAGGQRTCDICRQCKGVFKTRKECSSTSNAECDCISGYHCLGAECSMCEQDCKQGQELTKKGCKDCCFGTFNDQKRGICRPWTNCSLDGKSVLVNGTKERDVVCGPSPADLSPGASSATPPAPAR

T4: Hu_GTF34AAA (human, UniProt Q07011 18-255)
T4 construct: On HEK293F; also called GFT34AAA
T4 chain: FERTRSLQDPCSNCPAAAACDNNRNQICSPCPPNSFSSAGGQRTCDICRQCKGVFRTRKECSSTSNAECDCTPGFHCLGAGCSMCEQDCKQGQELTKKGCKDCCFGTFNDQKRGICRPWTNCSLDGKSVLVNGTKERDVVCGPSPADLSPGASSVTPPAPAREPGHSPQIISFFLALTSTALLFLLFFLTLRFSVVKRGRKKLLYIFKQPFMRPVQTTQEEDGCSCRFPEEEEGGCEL

T5: Hu_FSS53AAA (human, UniProt Q07011 18-255)
T5 construct: On HEK293F
T5 chain: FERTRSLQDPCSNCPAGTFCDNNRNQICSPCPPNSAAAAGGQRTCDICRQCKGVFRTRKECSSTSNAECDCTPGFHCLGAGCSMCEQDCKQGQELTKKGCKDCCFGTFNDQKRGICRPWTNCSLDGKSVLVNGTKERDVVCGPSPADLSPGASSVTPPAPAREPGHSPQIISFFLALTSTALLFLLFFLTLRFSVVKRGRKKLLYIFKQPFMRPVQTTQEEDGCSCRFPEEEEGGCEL


Columns and labels:
[1] = target: T6, Hu_FN125AA (human, UniProt Q07011 18-255); experiment: flow cytometry, HEK293F cells expressing CD137 or mutant [Cont.]
T6 construct: On HEK293F

[2] = target: T7, Hu_PW135AA (human, UniProt Q07011 18-255); experiment: as above
T7 construct: On HEK293F

[3] = target: T8, Hu_GT150AA (human, UniProt Q07011 18-255); experiment: as above
T8 construct: On HEK293F

[4] = target: T1, monkey CD137 protein (Biacore); experiment: SPR Biacore, IgG captured
[5] = target: T9, full-length human CD137 on the cell surface (human, UniProt Q07011 18-255); experiment: flow cytometry, PMA/ionomycin-activated human T cells, antibody 100 nM
T9 construct: also called Human WT

[6] = target: T10, Hu_GQ109AA (human, UniProt Q07011 18-255); experiment: flow cytometry, HEK293F
T10 construct: On HEK293F

[7] = target: T11, Hu_EL111AA (human, UniProt Q07011 18-255); experiment: flow cytometry, HEK293F
T11 construct: On HEK293F

[8] = target: T12, Hu_TN137AA (human, UniProt Q07011 18-255); experiment: flow cytometry, HEK293F
T12 construct: On HEK293F

[9] = target: T13, Hu_CRD2-CRD3 (human, UniProt Q07011 46-118, limits assumed); experiment: flow cytometry, yeast display [Cont.]
T13 construct: also called two CRD units (CRD2-CRD3) of human CD137

[10] = target: T2, Hu_CRD4; experiment: flow cytometry, yeast display [Cont.]
[11] = target: T14, Hu_CRD3-CRD4 (human, UniProt Q07011 87-159, limits assumed); experiment: flow cytometry, yeast display [Cont.]
T14 construct: also called two CRD units (CRD3-CRD4) of human CD137

[12] = target: T15, Hu_CRD1-CRD2-CRD3 (human, UniProt Q07011 24-118, limits assumed); experiment: flow cytometry, yeast display [Cont.]
T15 construct: also called three CRD units (CRD1-CRD2-CRD3) of human CD137

[13] = target: T16, Hu_CRD2-CRD3-CRD4 (human, UniProt Q07011 46-159, limits assumed); experiment: flow cytometry, yeast display [Cont.]
T16 construct: also called three CRD units (CRD2-CRD3-CRD4) of human CD137

[14] = target: T17, CD137-hisFc fusion protein (Sino Biological Cat 10041-H03H) (human, UniProt Q07011 24-186); experiment: competition ELISA, human CD137-Fc-His coated, biotinylated CD137L as blocked ligand, neutravidin-HRP
T17 construct: Bought; also called recombinant human CD137 (fused with human Fc and His tag); not shown: His tag and human Fc

[15] = target: T3, monkey CD137 fused with human FC …; experiment: ELISA, coated CD137-Fc
[16] = target: T18, human CD137 fused with human FC fragment (human, UniProt Q07011 24-186, limits assumed); experiment: ELISA, coated CD137-Fc
T18 construct: may be the same reagent as CD137-hisFc; also called human CD137 (FC fusion protein); not shown: human Fc fragment

[17] = target: T9, full-length human CD137 on the cell …; experiment: flow cytometry ligand competition, HEK293F cells with human CD137, antibody 100 nM then 33 nM biotinylated CD137L, streptavidin-Alexa 647
[18] = target: T19, Hu_FH92AA (human, UniProt Q07011 18-255); experiment: flow cytometry, HEK293F cells expressing CD137 or mutant [Cont.]
T19 construct: On HEK293F

[19] = target: T4, Hu_GTF34AAA; experiment: as above
[20] = target: T5, Hu_FSS53AAA; experiment: as above

T9 sequence (Q07011 18-255): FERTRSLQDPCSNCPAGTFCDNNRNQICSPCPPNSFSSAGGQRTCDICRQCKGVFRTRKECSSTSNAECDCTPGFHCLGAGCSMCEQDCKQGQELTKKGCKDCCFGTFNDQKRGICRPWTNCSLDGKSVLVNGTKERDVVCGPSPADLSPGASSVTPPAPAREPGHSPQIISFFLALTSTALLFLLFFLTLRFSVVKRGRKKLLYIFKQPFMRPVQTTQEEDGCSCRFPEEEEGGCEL
T6 sequence (Q07011 18-255 F125A/N126A): as the sequence (Q07011 18-255) above, with F108A, N109A counted along it
T12 sequence (Q07011 18-255 T137A/N138A): as the sequence (Q07011 18-255) above, with T120A, N121A counted along it
T7 sequence (Q07011 18-255 P135A/W136A): as the sequence (Q07011 18-255) above, with P118A, W119A counted along it
T10 sequence (Q07011 18-255 G109A/Q110A): as the sequence (Q07011 18-255) above, with G92A, Q93A counted along it
T11 sequence (Q07011 18-255 E111A/L112A): as the sequence (Q07011 18-255) above, with E94A, L95A counted along it
T8 sequence (Q07011 18-255 G150A/T151A): as the sequence (Q07011 18-255) above, with G133A, T134A counted along it

Row | binding result [1] | Mean [2] | Mean [3] | Kd [4] [nM] | % of cells positive for antibody binding [5] [%] | binding result [6] | binding result [7] | binding result [8] | % in upper right quadrant [9] [%] | Mean [9] | % in upper right quadrant [10] [%] | Mean [10] | % in upper right quadrant [11] [%] | Mean [11] | % in upper right quadrant [12] [%] | Mean [12] | % in upper right quadrant [13] [%] | Mean [13] | IC50 (read off the curve) [14] [nM] | Kd [15] [nM] | Binder | other results
1 | binds | 31600 | 13300 | 23.1 | 45.1 | binds | binds | binds | 0.15 | 7460 | 0.17 | 16100 | 0.39 | 11700 | 49.4 | 15100 | 0.25 | 14900 | ~100 | 0.4 | AG10059 (antibody, human IgG4 S228P, kappa, V domains shown) VH: EVQLVESGGGLVQPGGSLRLSCAASGYSITSGHYWAWIRQAPGKGLEWVSSISGYGSTTYYADSVKGRFTISRDNSKNTLYLQLNSLRAEDTAVYYCARGGSDAVLGDWFAYWGQGTLVTVSS VL: DIQLTQSPSSLSASVGDRVTITCRASQGIGSFLAWYQQKPGKAPKLLIYDASNLETGVPSRFSGSGSGTDFTLTISSLQPEDFATYYCQQGYYLWTFGQGTKVEIKR | Kd [16]: 0.8 nM; % in upper right quadrant (CD137L signal) [17]: 52.9%; Median (APC signal of bound biotinylated CD137L) [17]: 46500; binding result [18]: no binding (tested: 100 nM (as in Example 5)); Mean [19]: 893; binding result [19]: no binding (tested: 100 nM (as in Example 5)); Mean [20]: 720; binding result [20]: no binding (tested: 100 nM (as in Example 5))
2 | binds | 24300 | 12100 | 9.3 | 52 | binds | binds | binds | 0.11 | 14600 | 0.15 | 16100 | 0.19 | 18200 | 55.6 | 20000 | 0.91 | 7680 | ~40 | 0.3 | AG10058 (antibody, human IgG4 S228P, kappa, V domains shown) VH: EVQLVESGGGLVQPGGSLRLSCAASGFSLSTSGVGVGWIRQAPGKGLEWLALIDWDDDKYYSPSLKSRLTISRDNSKNTLYLQLNSLRAEDTAVYYCARGGSDTVLGDWFAYWGQGTLVTVSS VL: DIQLTQSPSSLSASVGDRVTITCRASQSVSPYLAWYQQKPGKAPKLLIYDASSLESGVPSRFSGSGSGTDFTLTISSLQPEDFATYYCQQGYSLWTFGQGTKVEIKR | Kd [16]: 0.2 nM; % in upper right quadrant (CD137L signal) [17]: 37.6%; Median (APC signal of bound biotinylated CD137L) [17]: 22300; binding result [18]: no binding (tested: 100 nM (as in Example 5)); Mean [19]: 878; binding result [19]: no binding (tested: 100 nM (as in Example 5)); Mean [20]: 778; binding result [20]: no binding (tested: 100 nM (as in Example 5))
